According to patent US20200199212A1:

Tests used:
[1] = molecular target: cynomolgus LPL on HEK293 cells (cynomolgus); assay: cell-based or functional assay
[2] = molecular target: rat LPL on HEK293 cells (rat) (UniProt Q06000); assay: cell-based or functional assay
rat LPL on HEK293 cells (rat), sequence (Q06000 28-474): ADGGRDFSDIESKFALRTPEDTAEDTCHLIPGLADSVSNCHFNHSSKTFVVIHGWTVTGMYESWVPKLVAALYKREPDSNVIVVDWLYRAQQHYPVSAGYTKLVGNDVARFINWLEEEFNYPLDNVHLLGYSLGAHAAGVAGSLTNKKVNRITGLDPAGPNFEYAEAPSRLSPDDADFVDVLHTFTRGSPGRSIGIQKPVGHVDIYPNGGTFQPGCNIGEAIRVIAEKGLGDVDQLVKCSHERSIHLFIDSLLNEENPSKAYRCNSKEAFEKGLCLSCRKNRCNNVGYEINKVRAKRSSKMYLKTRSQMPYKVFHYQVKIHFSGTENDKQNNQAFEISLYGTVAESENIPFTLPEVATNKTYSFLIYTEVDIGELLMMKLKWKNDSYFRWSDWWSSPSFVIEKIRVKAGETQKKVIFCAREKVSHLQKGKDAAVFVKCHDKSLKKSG

Substance | IC80 concentration (inhibition of LPL activity) [1] | IC80 concentration (inhibition of LPL activity) [2]
cyno ANGPTL3/8 complex (from UniProt A0A2K5UDC5 17-460) | 0.38 nM | –
rat ANGPTL3/8 complex (from UniProt F7FHP0 17-446) | – | 0.81 nM
